Measurements taken from patent publication US20200399712A1, “COMPOSITIONS AND METHODS FOR THE DIAGNOSIS AND DETECTION OF TUMORS AND CANCER PROGNOSIS” (priority 2018, published 2020).

Key:
[1] = tested on: E2, E4, E5 expression head and neck cell line; assay: Growth of E2, E4, E5 expressing head and neck cell line with FGFR inhibitor; assay type: cell-based
HPV16 DNA [2] = assay: CLIA test for HPV16, performance characteristics in salivary rinse
Description: (§1) These primer/probe sets were adapted for development of a CLIA test for HPV16 DNA detection in plasma and salivary rinses (Table 2). Test performance was improved, so that analytical sensitivity in salivary rinse spike in assays ranges from 2.5-5.0 DNA copies/mL with 100% specificity for the three primer/probe sets that are now part of the component assay, resulting in a five-fold improvement in analytic sensitivity that is in the range of sensitivity found in sequence based liquid biopsy methods (FIG. 23, Table 2). Additionally, the assays can be used quantitatively, with measuring ranges between 2.0 log10-7.0 log10 copies/mL.

HPV-16 genome = assay: qPCR sensitivity against HPV-16 copy number (known-copy HPV-16 DNA among 10 ng normal human DNA); conditions: for reaction under 30 copies of HPV-16 genome: among 10 ng normal DNA, triplicate qPCR
HPV-16 [3] = assay: qPCR on 20 ng DNA from saliva samples of HPV-HNSCC patients
HPV-16 [4] = assay: qPCR sensitivity against HPV-HNSCC tumor samples diluted among 10 ng normal human DNA
HPV16 DNA [5] = assay: CLIA test for HPV16, performance characteristics in plasma
Description: as §1

HPV DNA = assay: CLIA HPV test pilot study on saliva rinse samples from HPV-positive HNSCC patients and non-cancer controls; parameters: species or system HPV16; HPV16 DNA measured by CLIA HPV test: unit not given here
Method: As a final validation, Applicants a small pilot study was performed on a blinded set of saliva rinse samples from 28 patients with HPV-positive HNSCC and 15 salivary rinses from non-cancer controls. […] The sensitivity increased to 96% when all three sets were used (Table 3).

[6] = first template ('... HPV16', word is an image)
[7] = second template (name is an image)
[8] = samples tested 3 times, 10 ng DNA from healthy individual
[9] = tumor DNA dilution, fraction of 32 samples

## AZD4547
[1]
  growth effect induced by E2, E4, E5: reversed the growth effect induced by E2, E4, E5

B1: HR E5L2-4: primer/probe set for junction between E5 and L2, SEQ ID NO: 55-57 (same as SEQ ID NO: 4-6) (nucleic acid)
DNA 1: GCAAAACGCACAAAACGTGC
DNA 2: GACATGTACCTGCCTGTTTGC
DNA 3: CGGCTACCCAACTTTATAAAACA
modifications: chemistry not given here
HPV16 DNA [2]; first template ('... HPV16')
  Measuring Range - Salivary Rinse: 2.0-8.5log10 log10 copies/mL
HPV16 DNA [2]; [6]
  Limit of Detection - Salivary rinse: 2 copies/mL
HPV16 DNA [2]; [7]
  Limit of Detection - Salivary rinse: 19 copies/mL
  Measuring Range - Salivary Rinse: 2.0-6.5 log10 log10 copies/mL
HPV-16 genome
  reaction under 30 copies of HPV-16 genome: consistently amplified
HPV-16 genome; listed as Max-10
  reaction under 30 copies of HPV-16 genome: react consistently
HPV-16 genome; [8]
  number of reactions against 10 HPV-16 copies: one
  number of reactions under 30 HPV-16 copies: 3 reactions
HPV-16 [3]; 28 HPV-HNSCC saliva samples
  sensitivity of detection from saliva 20 ng DNA samples: 46.4%
HPV-16 [3]; compared among 4 primer-probe sets
  copy numbers detected (standard curve analysis): highest
HPV-16 [4]; 32 HPV-HNSCC tumor samples
  sensitivity under 100 cells: 93.8%
HPV-16 [4]; 32 HPV-HNSCC tumor samples, 6.6 pg DNA
  sensitivity under single cells: 15.6%
HPV-16 [4]; 32 HPV-HNSCC tumor samples, 66 pg DNA
  sensitivity under 10 cells: 50.0%
HPV-16 [4]; Sample # 1
  Threshold of tumor cell numbers for HPV-16 detection: 30.0 tumor cells
HPV-16 [4]; Sample # 2
  Threshold of tumor cell numbers for HPV-16 detection: 30.0 tumor cells
HPV-16 [4]; Sample # 3
  Threshold of tumor cell numbers for HPV-16 detection: 150.0 tumor cells
HPV-16 [4]; Sample # 4
  Threshold of tumor cell numbers for HPV-16 detection: 60.0 tumor cells
HPV-16 [4]; Sample # 5
  Threshold of tumor cell numbers for HPV-16 detection: 150.0 tumor cells
HPV-16 [4]; Sample # 6
  Threshold of tumor cell numbers for HPV-16 detection: 30.0 tumor cells
HPV-16 [4]; Sample # 7
  Threshold of tumor cell numbers for HPV-16 detection: 30.0 tumor cells
HPV-16 [4]; Sample # 8
  Threshold of tumor cell numbers for HPV-16 detection: 15.0 tumor cells
HPV-16 [4]; Sample # 9
  Threshold of tumor cell numbers for HPV-16 detection: 30.0 tumor cells
HPV-16 [4]; Sample # 10
  Threshold of tumor cell numbers for HPV-16 detection: 30.0 tumor cells
HPV-16 [4]; Sample # 11
  Threshold of tumor cell numbers for HPV-16 detection: 6.0 tumor cells
HPV-16 [4]; Sample # 12
  Threshold of tumor cell numbers for HPV-16 detection: 30.0 tumor cells
HPV-16 [4]; Sample # 13
  Threshold of tumor cell numbers for HPV-16 detection: 30.0 tumor cells
HPV-16 [4]; Sample # 14
  Threshold of tumor cell numbers for HPV-16 detection: 30.0 tumor cells
HPV-16 [4]; Sample # 15
  Threshold of tumor cell numbers for HPV-16 detection: 30.0 tumor cells
HPV-16 [4]; Sample # 16
  Threshold of tumor cell numbers for HPV-16 detection: 6.0 tumor cells
HPV-16 [4]; Sample # 17
  Threshold of tumor cell numbers for HPV-16 detection: 6.0 tumor cells
HPV-16 [4]; Sample # 18
  Threshold of tumor cell numbers for HPV-16 detection: 6.0 tumor cells
HPV-16 [4]; Sample # 19
  Threshold of tumor cell numbers for HPV-16 detection: 1.2 tumor cells
HPV-16 [4]; Sample # 20
  Threshold of tumor cell numbers for HPV-16 detection: 1.2 tumor cells
HPV-16 [4]; Sample # 21
  Threshold of tumor cell numbers for HPV-16 detection: 6.0 tumor cells
HPV-16 [4]; Sample # 22
  Threshold of tumor cell numbers for HPV-16 detection: 0.3 tumor cells
HPV-16 [4]; Sample # 23
  Threshold of tumor cell numbers for HPV-16 detection: 1.2 tumor cells
HPV-16 [4]; Sample # 24
  Threshold of tumor cell numbers for HPV-16 detection: 1.2 tumor cells
HPV-16 [4]; Sample # 25
  Threshold of tumor cell numbers for HPV-16 detection: 0.6 tumor cells
HPV-16 [4]; Sample # 26
  Threshold of tumor cell numbers for HPV-16 detection: 0.6 tumor cells
HPV-16 [4]; Sample # 27
  Threshold of tumor cell numbers for HPV-16 detection: 0.6 tumor cells
HPV-16 [4]; Sample # 28
  Threshold of tumor cell numbers for HPV-16 detection: 1.0 tumor cells
HPV-16 [4]; Sample # 29
  Threshold of tumor cell numbers for HPV-16 detection: 3.0 tumor cells
HPV-16 [4]; Sample # 30
  Threshold of tumor cell numbers for HPV-16 detection: 30.0 tumor cells
HPV-16 [4]; Sample # 31
  Threshold of tumor cell numbers for HPV-16 detection: 0.6 tumor cells
HPV-16 [4]; Sample # 32
  Threshold of tumor cell numbers for HPV-16 detection: 30.0 tumor cells
HPV-16 [4]; [9]
  Sensitivity, 1 cell: 0.156
  Sensitivity, 3 cells: 0.313
  Sensitivity, 10 cells: 0.500
  Sensitivity, 30 cells: 0.844
  Sensitivity, 100 cells: 0.938
HPV16 DNA [5]
  Accuracy - Plasma Blind Panel, Negative % Agreement: 100%
  Accuracy - Plasma Blind Panel, Positive % Agreement: 100%
  Accuracy - Plasma Blind Panel, Total % Agreement: 100%
HPV16 DNA [5]; first template ('... HPV16')
  Measuring Range - Plasma: 2.0-8.5 log10 log10 copies/mL
HPV16 DNA [5]; [6]
  Limit of Detection - Plasma: 1.5 copies/mL
HPV16 DNA [5]; [7]
  Limit of Detection - Plasma: 20 copies/mL
  Measuring Range - Plasma: 2.0-6.5 log10 log10 copies/mL
HPV DNA; 28 patients with HPV-positive HNSCC
  sensitivity for the detection of HPV DNA in saliva rinse samples: 71%
HPV DNA; saliva sample from HPV-HNSCC patient # 1
  HPV16 DNA measured by CLIA HPV test: 322000
HPV DNA; saliva sample from HPV-HNSCC patient # 2
  HPV16 DNA measured by CLIA HPV test: 52500
HPV DNA; saliva sample from HPV-HNSCC patient # 3
  HPV16 DNA measured by CLIA HPV test: 25800
HPV DNA; saliva sample from HPV-HNSCC patient # 4
  HPV16 DNA measured by CLIA HPV test: 33200
HPV DNA; saliva sample from HPV-HNSCC patient # 7
  HPV16 DNA measured by CLIA HPV test: 9670
HPV DNA; saliva sample from HPV-HNSCC patient # 8
  HPV16 DNA measured by CLIA HPV test: 2510
HPV DNA; saliva sample from HPV-HNSCC patient # 9
  HPV16 DNA measured by CLIA HPV test: 1590
HPV DNA; saliva sample from HPV-HNSCC patient # 12
  HPV16 DNA measured by CLIA HPV test: 86.7
HPV DNA; saliva sample from HPV-HNSCC patient # 13
  HPV16 DNA measured by CLIA HPV test: 53.1
HPV DNA; saliva sample from HPV-HNSCC patient # 14
  HPV16 DNA measured by CLIA HPV test: 31.1
HPV DNA; saliva sample from HPV-HNSCC patient # 15
  HPV16 DNA measured by CLIA HPV test: 49.7
HPV DNA; saliva sample from HPV-HNSCC patient # 16
  HPV16 DNA measured by CLIA HPV test: 41.3
HPV DNA; saliva sample from HPV-HNSCC patient # 17
  HPV16 DNA measured by CLIA HPV test: 15.8
HPV DNA; saliva sample from HPV-HNSCC patient # 18
  HPV16 DNA measured by CLIA HPV test: 2.61
HPV DNA; saliva sample from HPV-HNSCC patient # 19
  HPV16 DNA measured by CLIA HPV test: 26.9
HPV DNA; saliva sample from HPV-HNSCC patient # 20
  HPV16 DNA measured by CLIA HPV test: 13.4
HPV DNA; saliva sample from HPV-HNSCC patient # 21
  HPV16 DNA measured by CLIA HPV test: 6.54
HPV DNA; saliva sample from HPV-HNSCC patient # 22
  HPV16 DNA measured by CLIA HPV test: 1.16
HPV DNA; saliva sample from HPV-HNSCC patient # 26
  HPV16 DNA measured by CLIA HPV test: 2.15
HPV DNA; saliva sample from HPV-HNSCC patient # 27
  HPV16 DNA measured by CLIA HPV test: 1.19
